# Results as given in article PMC2866327, “Designed Inhibitors of Insulin-Degrading Enzyme Regulate the Catabolism and Activity of Insulin” (PLoS ONE, 2010).
# Read-outs that look alike come from different tables or passages of the source. Square brackets hold non-standard residues; d marks the D form. Ends that are not written are not given here. 1Nal = N[C@@H](Cc1cccc2ccccc12)C(=O)O; diphenylalanine = not defined here
# Experiments:
# Conditions in all cases: modification not given
# [1] = biological target: T1, insulin-degrading enzyme (recombinant human IDE) (human), P14735
# [2] = biological target: T1, insulin-degrading enzyme (recombinant …); remark: listed apart in the source
# [3] = biological target: T1, insulin-degrading enzyme (recombinant …); remark: listed apart in the source
# [4] = biological target: T1, insulin-degrading enzyme (recombinant …); remark: listed apart in the source
# [5] = biological target: T1, insulin-degrading enzyme (recombinant …); remark: listed apart in the source
# [6] = biological target: T1, insulin-degrading enzyme (recombinant …); remark: listed apart in the source
binder,measurement,setting,value
FRY [4-fluorophenylalanine],Ki,[1],7 µM
[diphenylalanine]-Arg-Tyr (reading uncertain) [diphenylalanine],Ki,[2],> 500 µM
[1Nal]-Arg-Tyr [1-naphthylalanine],Ki,[3],0.7 µM
FRY [4-(tert-butyl)-phenylalanine],Ki,[4],16 µM
[2‑benzothiophenylalanine]-Arg-Tyr [2-benzothiophenylalanine],Ki,[5],1.1 µM
FRY [3-fluorophenylalanine],Ki,[6],7 µM
